How the values were obtained:
[1] = biological target: HomB, outer membrane protein of Helicobacter pylori (recombinant, C-terminal His-tag) (Helicobacter pylori strain J99); assay: SAXS; ~2.5 mg/ml protein in 20 mM Tris-Cl pH 8, 200 mM NaCl, 5 mM BME; molecular weight from Porod volume, concentration-independent
[2] = biological target: HomB, outer membrane protein of Helicobacter pylori (recombinant, C-terminal His-tag) (Helicobacter pylori strain J99); assay: SDS-PAGE of SEC fractions; monomer and dimer peak fractions of the size exclusion runs on SDS-PAGE with or without beta-mercaptoethanol
[3] = biological target: HomB, outer membrane protein of Helicobacter pylori (recombinant, C-terminal His-tag) (Helicobacter pylori strain J99); assay: SEC; 1 mg protein on Superose 12, 50 mM Tris-Cl pH 8.0, 300 mM NaCl, 4 °C, 0.5 ml/min; alone or with detergents (LDAO, CHAPS, TWEEN 20) or 1 mM lipids (DMPC, DOPC); calibrated with molecular weight markers
[4] = biological target: HomA, outer membrane protein of Helicobacter pylori (recombinant, C-terminal His-tag) (Helicobacter pylori strain J99); assay: SAXS; ~2.5 mg/ml protein in 20 mM Tris-Cl pH 8, 200 mM NaCl, 5 mM BME; molecular weight from Porod volume, concentration-independent
[5] = biological target: HomA, outer membrane protein of Helicobacter pylori (recombinant, C-terminal His-tag) (Helicobacter pylori strain J99); assay: SDS-PAGE of SEC fractions; monomer and dimer peak fractions of the size exclusion runs on SDS-PAGE with or without beta-mercaptoethanol
[6] = biological target: HomA, outer membrane protein of Helicobacter pylori (recombinant, C-terminal His-tag) (Helicobacter pylori strain J99); assay: SEC; 1 mg protein on Superose 12, 50 mM Tris-Cl pH 8.0, 300 mM NaCl, 4 °C, 0.5 ml/min; alone or with detergents (LDAO, CHAPS, TWEEN 20) or 1 mM lipids (DMPC, DOPC); calibrated with molecular weight markers

Measured: stoichiometry N

HomB, outer membrane protein of Helicobacter pylori (recombinant, C-terminal His-tag) (natural protein)
2: [1] | [2] | [3]

HomA, outer membrane protein of Helicobacter pylori (recombinant, C-terminal His-tag) (natural protein)
2: [4] | [5] | [6]
